Measured values taken from patent US20230088269A1.

Molecular target: recombinant human IL-22R (R&D Systems / Biotechne 2770-LR) (human) (UniProt Q8N6P7)
Experiment: SPR (Biacore), purified Fab

Chain of recombinant human IL-22R (R&D Systems / Biotechne 2770-LR) (human) (Q8N6P7 16-228 limits assumed): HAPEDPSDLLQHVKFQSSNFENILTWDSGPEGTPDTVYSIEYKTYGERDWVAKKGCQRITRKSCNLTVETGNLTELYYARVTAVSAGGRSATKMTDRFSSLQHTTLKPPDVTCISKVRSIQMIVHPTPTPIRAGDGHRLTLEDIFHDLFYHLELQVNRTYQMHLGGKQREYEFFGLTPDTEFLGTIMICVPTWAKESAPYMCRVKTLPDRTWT

koff: 0.00035 s⁻¹
B1: 170B2 Fab (Fab, from another filing, V domains shown)
VH: EVQLVESGGGLVQPGGSLRLSCAASGFTFSSSWMYWVRQAPGKGLEFVSVINTRSGITHYVESVKGRFTISTDNAKNTLFLQMNSLKSEDTAVYYCATRIQGLIDYWGQGTQVTVSS
VL: DIVMTQSPSSLSVSLGDRVTITCQASQSIGSVNALAWYQQKPGQSLKLLIHGASRLQTGVPSRFSGSGSGTSFTLAISGVEAEDLATYYCLQDYAWPLTFGQGTKVELK
